Data as given in patent US20120219559A1 (Johns Hopkins, published 2012).

B1: human ICOS, full length, expressed on cells (ICOS+293T cells) (receptor)
chain: EINGSANYEMFIFHNGGVQILCKYPDIVQQFKMQLLKGGQILCDLTKTKGSGNTVSIKSLKFCHSQLSNNSVSFFLYNLDHSHANYYFCNLSIFDPPPFKVTLTGGYLHIYESQLCCQLKFWLPIGCAAFVVVCILGCILICWLTKKKYSSSVHDPNGEYMFMRAVNTAKKSRLTDVTL
notes: This id also stands for ICOS on human T cells in the functional rows
B2: human B7-2Ig fusion protein (Fc fusion, UniProt P42081 26-245, looked up)
chain: LKIQAYFNETADLPCQFANSQNQSLSELVVFWQDQENLVLNEVYLGKEKFDSVHSKYMGRTSFDSDSWTLRLHNLQIKDKGLYQCIIHHKKPTGMIRIHQMNSELSVLANFSQPEIVPISNITENVYINLTCSSIHGYPEPKKMSVLLRTKNSTIEYDGVMQKSQDNVTELYDVSISLSVSFPDVTSNMTIFCILETDKTRLLSSPFSIELEDPQPPPDH
notes: Bought from R&D Systems; Ig (Fc) part not given
B3: human B7-H7CRIg fusion protein (Fc fusion)
chain: LSVQQGPNLLQVRQGSQATLVCQVDQATAWERLRVKWTKDGAILCQPYITNGSLSLGVCGPQGRLSWQAPSHLTLQLDPVSLNHSGAYVCWAAVEIPELEEAEGNITRLFVDPDDPTQNRNRIASFPG
notes: also called B7-H67CRIg; not shown: Ig Fc tag; made from pMIgV or pHIgV plasmid

What was measured:
[1] = biological target: T1, human B7-H2Ig fusion protein (human, UniProt O75144 19-258); experiment: flow cytometry on 293T cells transfected with human ICOS
T1 construct: Ig (Fc) part not given
T1 sequence: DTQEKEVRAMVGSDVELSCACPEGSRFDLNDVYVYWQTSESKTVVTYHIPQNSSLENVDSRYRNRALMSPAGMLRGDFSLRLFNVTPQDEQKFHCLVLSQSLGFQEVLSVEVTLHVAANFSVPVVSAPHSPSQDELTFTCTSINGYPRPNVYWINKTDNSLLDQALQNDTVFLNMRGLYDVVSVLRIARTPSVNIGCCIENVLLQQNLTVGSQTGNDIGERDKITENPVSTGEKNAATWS

B7-H1Ig = biological target: T2, B7-H1Ig (Homo sapiens, UniProt Q9NZQ7); experiment: CDS well image, 293T cells transfected with the human gene, stained with the human fusion protein
T2 construct: Ig fusion protein purchased from R&D systems; also called human B7-H1Ig fusion protein

B7-DCIg = biological target: T3, B7-DCIg (Homo sapiens, UniProt Q9BQ51); experiment: as above
T3 construct: Ig fusion protein purchased from R&D systems; also called human B7-DCIg fusion protein
T3 sequence (fusion protein, looked up): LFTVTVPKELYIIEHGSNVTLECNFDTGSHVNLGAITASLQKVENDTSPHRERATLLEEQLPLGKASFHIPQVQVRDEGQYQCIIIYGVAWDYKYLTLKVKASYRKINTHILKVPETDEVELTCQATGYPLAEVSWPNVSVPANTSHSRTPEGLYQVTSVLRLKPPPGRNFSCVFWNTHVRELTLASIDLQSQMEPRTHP

[2] = biological target: T4, human B7-1Ig fusion protein (human, UniProt P33681 35-242); experiment: as above
T4 construct: Bought from R&D Systems; Ig (Fc) part not given
T4 sequence (looked up): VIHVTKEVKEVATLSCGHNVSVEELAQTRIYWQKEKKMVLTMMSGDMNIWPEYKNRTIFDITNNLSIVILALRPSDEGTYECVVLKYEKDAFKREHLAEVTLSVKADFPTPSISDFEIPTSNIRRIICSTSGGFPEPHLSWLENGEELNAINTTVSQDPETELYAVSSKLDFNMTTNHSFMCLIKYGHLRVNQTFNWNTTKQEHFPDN

[3] = biological target: B2; experiment: as above
[4] = biological target: T5, human B7-H2, full length, expressed on cells (B7-H2+293T cells) (human, UniProt O75144 19-302); experiment: flow cytometry on 293T cells transfected with full length human B7-H2; B7-2Ig alone
T5 construct: This id also stands for endogenous B7-H2 on monocyte-derived dendritic cells in the functional rows; also called ICOSL; ICOSLG
T5 sequence: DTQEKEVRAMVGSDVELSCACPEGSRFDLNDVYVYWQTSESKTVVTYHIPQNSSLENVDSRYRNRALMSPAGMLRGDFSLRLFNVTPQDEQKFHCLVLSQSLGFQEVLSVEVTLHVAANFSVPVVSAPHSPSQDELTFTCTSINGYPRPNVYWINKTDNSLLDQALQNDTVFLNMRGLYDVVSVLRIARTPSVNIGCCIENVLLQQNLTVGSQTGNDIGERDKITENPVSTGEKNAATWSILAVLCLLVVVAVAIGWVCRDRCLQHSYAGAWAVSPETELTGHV

[5] = biological target: T6, human B7-2 (CD86, B70) expressed on 293T cells (human, UniProt P42081 24-329); experiment: CDS well image, 293T cells transfected with the human gene, stained with the human fusion protein
T6 construct: whole, on cells
T6 sequence (looked up): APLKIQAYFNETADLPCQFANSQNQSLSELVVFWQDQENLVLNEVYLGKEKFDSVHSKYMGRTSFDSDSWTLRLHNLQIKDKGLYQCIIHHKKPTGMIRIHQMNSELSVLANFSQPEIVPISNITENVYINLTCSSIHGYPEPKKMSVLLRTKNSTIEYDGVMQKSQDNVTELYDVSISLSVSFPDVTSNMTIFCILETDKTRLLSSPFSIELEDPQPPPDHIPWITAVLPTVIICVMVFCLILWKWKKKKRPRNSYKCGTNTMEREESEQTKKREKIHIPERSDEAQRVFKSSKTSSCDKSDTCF

[6] = biological target: T7, human B7-H1 expressed on 293T cells (human, UniProt Q9NZQ7 19-290); experiment: as above
T7 construct: whole, on cells

[7] = biological target: T8, human B7-DC expressed on 293T cells (human, UniProt Q9BQ51 20-273); experiment: as above
T8 construct: whole, on cells
T8 sequence (looked up): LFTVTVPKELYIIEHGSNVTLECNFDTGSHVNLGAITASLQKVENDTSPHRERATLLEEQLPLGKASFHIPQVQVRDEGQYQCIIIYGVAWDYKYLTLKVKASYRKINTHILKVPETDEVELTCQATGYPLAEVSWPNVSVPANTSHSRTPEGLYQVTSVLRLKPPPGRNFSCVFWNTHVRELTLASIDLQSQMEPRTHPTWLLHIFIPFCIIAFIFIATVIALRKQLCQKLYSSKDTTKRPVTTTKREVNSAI

[8] = biological target: T9, human B7-1 (CD80) expressed on 293T cells (human, UniProt P33681 35-288); experiment: as above
T9 construct: whole, on cells
T9 sequence (looked up): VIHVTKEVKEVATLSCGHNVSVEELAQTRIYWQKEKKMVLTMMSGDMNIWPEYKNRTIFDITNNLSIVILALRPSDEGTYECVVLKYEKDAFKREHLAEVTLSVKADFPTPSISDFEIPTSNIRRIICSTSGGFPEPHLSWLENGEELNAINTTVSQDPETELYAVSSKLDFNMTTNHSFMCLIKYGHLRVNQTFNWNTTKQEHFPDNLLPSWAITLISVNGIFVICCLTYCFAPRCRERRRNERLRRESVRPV

[9] = biological target: T9, human B7-1 (CD80) expressed on 293T …; experiment: flow cytometry on 293T cells transfected with B7-1
[10] = biological target: T6, human B7-2 (CD86, B70) expressed on …; experiment: flow cytometry on 293T cells transfected with B7-2
[11] = biological target: T8, human B7-DC expressed on 293T cells; experiment: flow cytometry on 293T cells transfected with B7-DC
[12] = biological target: T7, human B7-H1 expressed on 293T cells; experiment: flow cytometry on 293T cells transfected with B7-H1
[13] = biological target: T5, human B7-H2, full length, expressed on …; experiment: flow cytometry on 293T cells transfected with B7-H2
[14] = biological target: T10, human B7-H4 expressed on 293T cells (human, UniProt Q7Z7D3 25-282); experiment: flow cytometry on 293T cells transfected with B7-H4
T10 construct: whole, on cells
T10 sequence (looked up): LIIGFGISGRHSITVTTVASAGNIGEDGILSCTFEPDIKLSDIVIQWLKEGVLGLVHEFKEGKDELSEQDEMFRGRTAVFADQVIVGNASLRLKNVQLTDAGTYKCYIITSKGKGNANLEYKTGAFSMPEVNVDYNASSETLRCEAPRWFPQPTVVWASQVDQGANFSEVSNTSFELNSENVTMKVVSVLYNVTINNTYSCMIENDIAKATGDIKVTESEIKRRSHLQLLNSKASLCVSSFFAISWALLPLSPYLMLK

[15] = biological target: T11, human B7-H3, 2Ig form, expressed on 293T cells (human, UniProt Q5ZPR3-2 29-316); experiment: flow cytometry on 293T cells transfected with B7-H3 (2Ig)
T11 construct: whole, on cells
T11 sequence (looked up): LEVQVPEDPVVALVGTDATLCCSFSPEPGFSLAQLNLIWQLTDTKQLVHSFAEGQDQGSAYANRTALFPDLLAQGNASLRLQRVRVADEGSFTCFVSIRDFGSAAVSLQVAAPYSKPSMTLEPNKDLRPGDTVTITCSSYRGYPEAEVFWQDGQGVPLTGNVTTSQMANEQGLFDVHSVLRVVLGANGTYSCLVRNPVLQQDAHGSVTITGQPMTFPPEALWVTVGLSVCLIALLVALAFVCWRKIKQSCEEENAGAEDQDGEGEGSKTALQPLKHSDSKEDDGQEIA

[16] = biological target: T12, human B7-H3, 4Ig form, expressed on 293T cells (human, UniProt Q5ZPR3 29-534); experiment: flow cytometry on 293T cells transfected with B7-H3 (4Ig)
T12 construct: whole, on cells
T12 sequence (looked up): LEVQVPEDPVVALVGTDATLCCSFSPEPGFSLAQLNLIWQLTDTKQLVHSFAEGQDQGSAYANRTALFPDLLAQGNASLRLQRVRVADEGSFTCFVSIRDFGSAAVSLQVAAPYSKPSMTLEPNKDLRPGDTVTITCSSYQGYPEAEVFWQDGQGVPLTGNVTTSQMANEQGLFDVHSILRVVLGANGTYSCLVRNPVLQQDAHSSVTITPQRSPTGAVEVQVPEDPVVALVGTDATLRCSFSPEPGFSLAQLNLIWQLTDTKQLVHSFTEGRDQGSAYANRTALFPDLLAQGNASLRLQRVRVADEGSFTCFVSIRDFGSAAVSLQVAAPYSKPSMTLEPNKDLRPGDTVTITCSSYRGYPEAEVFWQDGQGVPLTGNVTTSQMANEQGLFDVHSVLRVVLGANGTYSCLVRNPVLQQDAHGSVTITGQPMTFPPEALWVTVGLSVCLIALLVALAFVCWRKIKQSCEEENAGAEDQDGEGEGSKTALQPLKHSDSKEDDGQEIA

[17] = biological target: T13, human B7-H7, full length, expressed on transfected cells (B7-H7+ cells) (human, UniProt Q9UM44 23-414); experiment: flow cytometry on B7-H7 transfected cells (sheet: B7-H7+ 293T; legend: CHO cells); B7-H7CRIg at 10 µg/ml
T13 construct: also called HHLA2
T13 sequence: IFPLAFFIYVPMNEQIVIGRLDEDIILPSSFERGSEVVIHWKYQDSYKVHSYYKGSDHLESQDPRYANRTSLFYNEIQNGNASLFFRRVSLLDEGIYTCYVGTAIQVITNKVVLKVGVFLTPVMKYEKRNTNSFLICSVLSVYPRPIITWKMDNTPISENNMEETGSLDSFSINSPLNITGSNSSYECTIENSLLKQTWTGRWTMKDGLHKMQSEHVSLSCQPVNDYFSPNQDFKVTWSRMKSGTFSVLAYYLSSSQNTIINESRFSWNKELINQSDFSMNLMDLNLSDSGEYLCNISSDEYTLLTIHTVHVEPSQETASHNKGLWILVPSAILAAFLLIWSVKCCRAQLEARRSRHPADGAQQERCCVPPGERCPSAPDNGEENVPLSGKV

T7 sequence (Q9NZQ7 19-290): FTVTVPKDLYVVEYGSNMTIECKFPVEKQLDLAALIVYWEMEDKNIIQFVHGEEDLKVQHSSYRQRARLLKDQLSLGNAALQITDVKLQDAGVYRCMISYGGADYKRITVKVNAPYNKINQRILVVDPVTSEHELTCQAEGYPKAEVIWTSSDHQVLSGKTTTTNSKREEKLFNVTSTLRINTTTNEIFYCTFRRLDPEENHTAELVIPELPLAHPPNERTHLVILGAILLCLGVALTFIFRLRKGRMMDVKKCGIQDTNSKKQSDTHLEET
T2 sequence (Q9NZQ7 19-239 limits assumed): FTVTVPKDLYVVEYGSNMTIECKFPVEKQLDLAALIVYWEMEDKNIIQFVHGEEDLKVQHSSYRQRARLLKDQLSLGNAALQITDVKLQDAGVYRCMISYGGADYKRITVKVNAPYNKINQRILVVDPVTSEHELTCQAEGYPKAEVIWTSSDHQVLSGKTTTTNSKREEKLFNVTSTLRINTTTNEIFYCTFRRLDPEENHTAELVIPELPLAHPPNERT

Which results are given for B1?
binding result [1]: binds; binding result (B7-H1Ig): no binding; binding result (B7-DCIg): no binding; binding result [2]: no binding; binding result [3]: no binding

Does B2 bind [4]?
Result: no binding

Does B2 bind [5]?
Result: no binding

Does B2 bind [6]?
Result: no binding

Does B2 bind [7]?
Result: no binding

Does B2 bind [8]?
Result: no binding

Does B3 bind [9]?
Result: no binding (tested: 10 µg/ml)

Does B3 bind [10]?
Result: no binding (tested: 10 µg/ml)

Does B3 bind [11]?
Result: no binding (tested: 10 µg/ml)

Does B3 bind [12]?
Result: no binding (tested: 10 µg/ml)

Does B3 bind [13]?
Result: no binding (tested: 10 µg/ml)

Does B3 bind [14]?
Result: no binding (tested: 10 µg/ml)

Does B3 bind [15]?
Result: no binding (tested: 10 µg/ml)

Does B3 bind [16]?
Result: no binding (tested: 10 µg/ml)

Does B3 bind [17]?
Result: binds
